# Assay results published in publication PMC7749166 (Communications Biology, 2020).
# B1: C5a: C5a, a large 74-amino acid glycoprotein; endogenous ligand of C5aR (His6-tag at N-terminal end for AFM tips) (protein)
# chain: TLQKKIEEIAAKYKHSVVKKCCYDGACVNNDETCEQRAARISLGPRCIKAFTECCVVASQLRANISHKDMQLGR
# modifications: left off: His6, N-terminal, kept
# Biological target: T1, C5aR^D282A (Homo sapiens, UniProt P21730, D282A)
# T1 construct: Flag (N); His8 (C); made in house; host or cells: HEK-293S cells (BacMam baculovirus)
# T1 sequence (P21730 1-350 D282A): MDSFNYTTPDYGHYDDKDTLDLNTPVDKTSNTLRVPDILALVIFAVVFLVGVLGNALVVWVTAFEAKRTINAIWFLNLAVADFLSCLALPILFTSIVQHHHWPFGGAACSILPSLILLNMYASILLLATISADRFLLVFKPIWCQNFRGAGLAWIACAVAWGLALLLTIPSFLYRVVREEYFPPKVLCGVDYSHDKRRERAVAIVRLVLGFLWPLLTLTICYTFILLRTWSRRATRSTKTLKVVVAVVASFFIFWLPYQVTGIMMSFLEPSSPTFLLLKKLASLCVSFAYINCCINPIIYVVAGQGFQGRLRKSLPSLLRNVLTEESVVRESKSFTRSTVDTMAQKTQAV
# Test: FD-/FV-based AFM dynamic force spectroscopy vs D282A mutant
# Type: binding
# Protocol: The reconstituted C5aR sample solution (either wt-C5aR or mutants) was 20-fold diluted in fusion buffer solution (20 mM HEPES, 300 mM NaCl, and 25 mM MgCl2) and adsorbed on freshly cleaved mica for 15 min. After rinsing with imaging buffer (20 mM HEPES and 300 mM NaCl) the sample was transferred to the AFM.
# Rectangular Si3N4 AFM cantilevers with silicon tips (BioLever mini, Bruker) were first cleaned with chloroform for 10 min, rinsed with ethanol, N2 dried, and then cleaned for 15 min in an ultraviolet radiation and ozone cleaner (UV-O, Jetlight, CA, USA). For the aminofunctionalization, the cantilevers were immersed in an ethanolamine solution (3.3 g ethanolamine in 6.6 ml DMSO) overnight and then rinsed in DMSO (3 × 1 min) and ethanol (3 × 1 min), followed by N2 drying. This was followed by the N-hydroxysuccinimide (NHS)-PEG27-acetal linker attachment. A 1 mg portion of the NHS-PEG27-acetal linker (JKU, Linz, Austria) was diluted in 0.5 ml chloroform with 30 µl triethylamine and the cantilevers were immersed in this solution for 2 h. After three rinsing steps of 10 min in chloroform and N2 drying, the cantilevers were immersed in a 1% citric acid solution for 10 min, rinsed with pure water (3 × 5 min), and dried with N2 once more. tris-NTA-derivatized AFM cantilevers were obtained by pipetting 100 µl of a 100 µM tris-N-nitrilotriacetic amine trifluoroacetate (Toronto Research Chemicals, Canada) (tris-NTA) solution onto the cantilevers, followed by the addition of 2 μl of a freshly prepared 1 M NaCNBH3 solution. The cantilevers were incubated for 1 h, then 5 μl of a 1 M ethanolamine solution pH 8.0 was added for 10 min to quench the reaction. tris-NTA cantilevers were further used to obtain C5a-derivatized tips. For this purpose, 100 μl of a 1 μM C5a protein solution was premixed with 5 μl NiCl2 5 mM and the mixture was pipetted onto the tris-NTA cantilevers. After 2 h of incubation time, the cantilevers were washed in HEPES buffer 3 × 5 min.
# (JKU, Linz, Austria) dissolved in 0.5 ml of chloroform with 30 μl of triethylamine, then washed with chloroform and dried with N2. […] After 3 h of reaction, cantilevers were washed with PBS 3 × 5 min.
# AFM experiments were performed with a Multimode 8 AFM equipped with a Nanoscope V controller (Bruker, Santa Barbara, CA, USA) operated in “PeakForce Tapping QNM mode”. All measurements were carried out in imaging buffer at room temperature (≈24 °C). […]
# In FD-based AFM measurements, the AFM cantilever is oscillated in a sinusoidal manner well below its resonance frequency, while the sample surface is contoured pixel-by-pixel. For each approach–retraction cycle of the oscillating cantilever, a force–distance curve is recorded. […] Adhesion maps were recorded using a scan rate of 0.2 Hz and 256 × 256 pixels. […]
# [1] = FNdY fit, ± s.e.m., ligand-derivatized AFM tip, 20 mM HEPES, 300 mM NaCl, ≈24 °C
molecule,measurement,setting,value
B1,drop of the ΔGbu vs wild type,"AFM, D282A vs WT",four
same,binding equilibrium free energy ΔGbu,[1],-3.4 ± 0.7 kcal/mol
same,equilibrium force Feq,[1],27 ± 3 pN
same,residence time τ0.5,"FNdY fit, ligand-derivatized AFM tip, 20 mM HEPES, 300 mM NaCl, ≈24 °C",0.08 ms
